Experiment [1] has as its target human CD16A-158V ECD fused to Avi-tagged and biotinylated monomeric Fc (silenced) (human). The experiment is described as follows: SPR. (Surface plasmon resonance follows binding to a sensor surface in real time, without labels.)
The target of experiment [2] is human CD16A-158F ECD fused to Avi-tagged and biotinylated monomeric Fc (silenced) (human) (UniProt P08637). In words: SPR.
Sequence of UniProt P08637 (P08637 17-208): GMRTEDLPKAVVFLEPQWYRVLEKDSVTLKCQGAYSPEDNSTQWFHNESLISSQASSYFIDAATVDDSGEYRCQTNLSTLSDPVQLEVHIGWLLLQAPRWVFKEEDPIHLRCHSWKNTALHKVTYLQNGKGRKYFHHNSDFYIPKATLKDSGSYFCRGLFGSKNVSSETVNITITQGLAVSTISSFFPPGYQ

With “human IgG1 with enhanced Fc (S239D/I332E) (antibody)”, in experiment [1], the Kd – broadly, the free concentration of one partner at which half of the binding sites on the other are occupied at equilibrium, for simple one-to-one binding – is 13.5 nM; the dissociation rate constant (koff) (as a rule, a measure of how fast the partners let go of each other) turned out to be 0.00639 s⁻¹; the kon – broadly, the second-order rate constant of association – worked out at 474000 M⁻¹ s⁻¹.
For the substance human IgG1 with wildtype Fc (antibody), in experiment [2], the Kd stood at 2720 nM, the off-rate constant (koff) was found to be 0.0675 s⁻¹ and the kon came to 24800 M⁻¹ s⁻¹. In experiment [1], the Kd was found to be 424 nM, the koff turned out to be 0.00995 s⁻¹ and the kon is 23500 M⁻¹ s⁻¹.
In experiment [2], “human IgG1 with silenced Fc (L234F/L235E/D265A) (antibody)” displayed a Kd of 34700 nM, an off-rate (koff) of 0.71 s⁻¹ and an on-rate constant (kon) of 20400 M⁻¹ s⁻¹.
